# Data as given in US11008365B2 (NATIONAL INSTITUTE OF ADVANCED INDUSTRIAL SCIENCE AND …, priority 2016, dated 2021).
# “Also recorded” adds a separate entry of the source.
# What was measured:
# [1] = target: T1, CH1-CL domain forming a non-native three-dimensional structure (Homo sapiens, UniProt P01834+P01857); test: SPR of synthetic peptides on immobilized acid-treated CH1-CL domain; assay type: binding; settings: for Non-native CH1-CL domain (whether affinity was present or not): SPR Biacore T100, peptides 4-1 μM (FIG. 5), 50-1.6 μM (FIG. 6), 64-2 μM (FIG. 7); for affinity / binding response compared to AF.ab9: SPR, non-native CH1-CL domain immobilized, FIGS. 6 and 7
# T1 construct: made in house; host or cells: Escherichia coli BL21(DE3)
# From the text: Here, the AF.ab9 body is a 16-residue polypeptide consisting of the 8-residue linker region and the 8-residue microprotein chignolin, and the AF.ab9 arm is a 10-residue polypeptide consisting of a region selected from the random amino acid sequences. The preparation of the polypeptides was entrusted to GL Biochem (Shanghai). […] The measurement conditions were in accordance with those in the paragraph 3).
# The CH1-CL domain forming a non-native three-dimensional structure prepared by the same method as in the paragraph 3) was immobilized on a sensor chip CM5 (GE Healthcare) by amine coupling, and the binding thereof to AF.ab31, AF.ab9, and alanine substitution products was measured with Biacore T100 (FIGS. 6 and 7, Table 3).
# Fab region = test: SPR of Fab region (native or acid-treated) on immobilized AF.ab9; assay type: binding, human
# Protocol: (§1) Preparation of the synthesized polypeptide was entrusted to GL Biochem (Shanghai). AF.ab9 was dissolved in a boric acid buffer solution (10 mM Borate-Na, 1 M NaCl, pH 8.5) and was immobilized on a sensor chip CM5 (GE Healthcare) by amine coupling.
# (§2) Subsequently, human monoclonal IgG, Fab region, and Fc region having a native three-dimensional structure and a non-native three-dimensional structure were prepared. The Fab region and Fc region were prepared by subjecting human monoclonal IgG to papain digestion with Pierce (registered trademark) Fab Preparation Kit (Thermo Fisher Scientific Inc.) and then to purification by affinity chromatography using MabSelect SuRe (GE Healthcare), anion exchange chromatography using HiTrap DEAE (GE Healthcare), and gel filtration chromatography using Superdex 200 (GE Healthcare). The IgG, Fab region, and Fc region were each diluted to 5 μM and dialyzed against an acid buffer solution (50 mM NaH2PO4, 100 mM NaCl, pH 2.0) for 12 hours for accelerating acid denaturation and dialyzed against an HBS-T buffer solution for neutralization.
# human monoclonal IgG = test: SPR of IgG (native or acid-treated) on immobilized AF.ab9; assay type: binding
# Protocol: as §1, §2
# Subsequently, an example of evaluating the affinity of AF.ab9 for IgG treated with buffer solutions having different degrees of acidity will be described. IgG was dissolved in an HBS buffer solution (10 mM HEPES, 150 mM NaCl, pH 7.4) at a concentration of 5 μM. The acidity of a sodium phosphate buffer solution (50 mM NaH2PO4, 100 mM NaCl) as an acid buffer solution was adjusted to three degrees of pH 2.0, pH 3.0, and pH 4.0. An antibody was dialyzed against each of the buffer solutions for 12 hours and was then dialyzed against an HBS-T buffer solution for neutralization. The affinity of each of the resulting acid-treated IgG for AF.ab9 was measured by SPR (FIG. 4, Table 2). The SPR test was conducted in accordance with the conditions described above in this paragraph. […] Regarding the acid denaturation of the CH1-CL domain, it has been reported as the results of analysis by spectroscopic methods such as CD spectrum and fluorescence spectrum that a clear change in the three-dimensional structure of the CH1-CL domain occurs between pH 4.0 and pH 3.0 (Non Patent Literature 32).
# Fc region = test: SPR of Fc region (native or acid-treated) on immobilized AF.ab9; assay type: binding, human
# Protocol: as §1, §2
Sequence,Non-native CH1-CL domain (whether affinity was present or not) [1],affinity / binding response compared to AF.ab9 [1],further results
PNSGGGGSYDPETGTWAQEIRLILNW [AF.ab9 P17A],Binding,the binding response decreased,
PNSGGGGSYDPETGTWPAEIRLILNW [AF.ab9 Q18A],Binding,,
PNSGGGGSYDPETGTWPQEIRLIANW [AF.ab9 L24A],Binding,the binding response decreased,
PNSGGGGSYDPETGTWPQEIRLILNW (Synthetic IgG binding peptide) [AF.ab9],showed affinity; also recorded: Binding,,"affinity for AF.ab9: pH 2.0-treated Fab (Fab region; Fab region treated with acid buffer pH 2.0, neutralized, 2-0.125 μM): strong binding response; affinity for AF.ab9: Native Fab (Fab region; acid-untreated Fab region 2-0.125 μM): did not show a significant binding response; also recorded: No-binding; affinity for AF.ab9: pH 2.0-treated IgG (human monoclonal IgG; IgG treated with acid buffer pH 2.0 for 12 hours, neutralized, 2-0.125 μM): strong binding response; also recorded: clear binding responses; affinity for AF.ab9: pH 3.0-treated IgG (human monoclonal IgG; IgG treated with acid buffer pH 3.0, neutralized, 2-0.125 μM): clear binding responses; affinity for AF.ab9: pH 4.0-treated IgG (human monoclonal IgG; IgG treated with acid buffer pH 4.0, neutralized, 2-0.125 μM): did not show a significant binding response; also recorded: No-binding; affinity for AF.ab9: Native IgG (human monoclonal IgG; acid-untreated IgG 2-0.125 μM, AF.ab9 immobilized on CM5): did not show a significant binding response; also recorded: No-binding; affinity for AF.ab9: pH 2.0-treated Fc (Fc region; Fc region treated with acid buffer pH 2.0, neutralized, 2-0.125 μM): No-binding; affinity for AF.ab9: Native Fc (Fc region; acid-untreated Fc region 2-0.125 μM): did not show a binding response; also recorded: No-binding; binding response to the acid-treated Fc region compared with that on the non-native structure of the Fab region (Fc region; pH 2.0-treated Fc versus pH 2.0-treated Fab, SPR): 1/100"
PNSGGGGSYDPETGTWPQWITLTITY (Synthetic IgG binding peptide) [AF.ab31],Binding,substantially equivalent,
PQEIRLILNW (Synthetic IgG binding peptide) [AF.ab9 arm],showed affinity; also recorded: Binding,,
